Data as given in the DeepSol protein solubility set.

Test: soluble on expression in E. coli; label from the status in PepcDB or PDB records

Row | Sequence | soluble on expression in E. coli
1 | MVPLESSTLFGVYGGFTDSMMMRETTTNNQDPSGDTCSVSDPAPGSTDYYNISSSPVKDDGTAPKNDVVCSINVDDNKDKSWLRLGIGPEENTDGSYKLQRCCSKNGSGRENSLELSLFSSSSTAVSSSIDHLPTQPLQLPYHHDQLLTMRGPSLVYNHQLMKPQTLLNRGFSFPSSKPWIPQYMAPFRPSSLSDRDVTNNNSLSRSCCVDEGGAGPSSEFRVLDPPRRPHSGLWFLLQASQFQ | soluble
2 | MLNLSSNQAAAVTVSETAELPEALEQLGLSNSRPVLVIVGGASQTSEADFLRIQSLFVEVLAPIAQSLGAYVVDGGTDAGVMRLMGDARSQINGQFPLIGVAPTAKVILPNQTTILADDATPLEPHHSHFVLIPGSKWGDESPWIVKVATLLANGLPSITVLINGGEISFLEHHHHHH | soluble
3 | MAIQTSNLGYPRIGLQREWKKTLEAFWSNKINEEQFLTTMKEIRLQHVKVQQEKGIELIPIGDFTYYDHVLDTAYMLGFIPSRFSEFTSYLDVYFAMARGSKDHVASEMTKWFNTNYHYIVPEYEEGLQISLKDNRPLRLYEEAKQELGVDGKPVILGPYTFLKLAKGYTQEQFATILKQLVAPYVQLLSELHAAGAQIIQVDEPIFASLTKEEVQQAKEIYEAIRKEVPNATLLLQTYFDSVEENYEEIITFPVSSIGLDFVHGKEGNLNAISKYGFPADKTLAVGCIDGRNIWRADLDEVLTLFTTLQKQVQTKDLIVQPSCSLLHTPIDKTEETHLSTELFDALAFANQKLEELVLIHSALTQGTESISNELETYRNVHHTIRSSAARNREDVKAARTALKEEDFSRPLPFEKRYELQQVALKLPLLPTTTIGSFPQTTEVRQTRKEWRNGIISNEQYEQFIEKETEKWIRYQEEIGLDVLVHGEFERTDMVEYFGERLAGFSFTKNGWVQSYGSRCVKPPVIYGDVAFINGMTIKETVYAQSLTEKVVKGMLTGPVTILNWSFVRNDIPRKEVSYQIALALRHEIELLESSGIRVIQVDEPALREGMPLKEKDWDAYITWAVQSFLLATSSVANETQIHTHMCYSNFEDIVDAIRALDADVISIETSRSHGEFIDTLKHTTYEKGIGLGVYDIHSPRVPSKDEMYKIVEQSLQVCDPKYFWINPDCGLKTRRTEEVIPALEHMVQAAKDARSLLKTNA | not soluble
4 | MTAPRKTRTEVITTVLNLERTLAQTVLGINDENLRVLDNQIDCDIHVRGTHVELTGPAHEVSRASKIFEELQAIARRGHVISPETVKNVISMINVETPQTVSEILTGDILARRGKVIRPKTLGQKHYVDAIDTNTIVFGLGPAGSGKTYLAMAKAVQALQSKQVSRIILTRPAVEAGEKLGFLPGTLNEKIDPYLRPLHDALRDMVEPEVIPKLMEAGIVEVAPLAYMRGRTLNDAFVILDEAQNTTPAQMKMFLTRLGFGSKMVVTGDITQVDLPGGQKSGLRLVRHILRGVDDVHFSELTSSDVVRHQLVGHIVDAYEDYEEREARELKRKRQETRP | not soluble
5 | MKKWLALFVFGMVSLFATSAHAESYETTKTLKVYESRSFNSPVKKELQPGERVYVTNQHPSGWWKISGGFIAPEGAKVEINRTFEAFDWINMDSAKYVFSPQTVIARDGTLRGEILIDTYLGQKWTSVNGMPQIMKQNFAAYSSPEAKNPDAWFAPQTVNILQTKENGWSLINTYLGPKWIVRYPHVEHINRDFYAYNEPKYMHHGVKFSAQSVRVLQQGENGWKKIKAEVGEKWIAPQGSYYHVPNVFTAFDQPFGRAIGTFAPQTVFVVEESTTSFGWLKIRTYLGDSWIRTNRN | not soluble
6 | MSTPDDPVIHSPPSIGAAPGMNGYHGSGVKLEESSGACGSPDDGLLDSSEESRRRQKTCRVCGDHATGYNFNVITCESCKAFFRRNALRPKEFKCPYSEDCEINSVSRRFCQKCRLRKCFTVGMKKEWILNEEQLRRRKNSRLNNTGTCNKRSQPGNQQSPQGPNQQPHLSPHHPGVAIYPPQPQRPLTINPMDNQMMHHMQANRPNAMPQLISPPGAQPYPLTSPVGSSASDSPPNRSLTMMHNGEKSPDGYDPNIMAHRAPPPSFNNRPKMDSGQVVLSTEEYKQLLSRIPGAQVPGLMNEEEPINKRAAYNCNGHPMPAETTPPYSAPMSDMSLSRHNSTSSGTEKNHMTHSTVSAIPGNSAQNHFDIASFGMGIVTATGGGDAAEEMYKRMNMFYENCIQSALDSPENQEPKPQEAMIPKEEYMTPTHGFQYQSDPYQVPPAERNINYQLNAAELKALDAVREAFYGMDDPMEQGRQMQSFLKANKTPADIMNIMDVTMRRFVKVAKGVPAFREVSQEGKFSLLKGGMIEMLTVRGVTRYDASTNSFKTPTIKGQNVSVNVDDMFAKLNANAQAQKAKCLEFFGFFDEEIKKNELAVYLVMLAVLFSVRSDPPMNENDVRIVTERHNHFMSLLNRYLESLFGEQARRIFERIPKALGLLNEIARNAGMLFMGTVRSGEAEELPGEFFKIK | not soluble
7 | MSLIKLIATDMDGTLLNAAHEISQPNIDAIKYAQEQGITVVIATGRAFYEAQAPVADTDLTVPYICLNGAEVRDETFNVMSTSHLNKSLVHKITNVLKDAGIYYQVYTSRAIYTEDPQRDLDIYIDIAERAGQHANVERIKNGIQRRIDNGTLKVVDNYDAIENIPGELIMKILAFDGNLEKIDKASKILAESPNLAISSSSRGNIEITHSDAQKGIALETIAERLGIEMKDVMAIGDNLNDLSMLEKVGYPVAMENGAEEVKKIAKYVTDTNENSGVGKAIMKLLREQEGHHHHHH | soluble
8 | MATSSSAFDDELPMEEGMPELLDDEDVPSTLPSLLEQNLDTAPKGDEFKLVKRKRKSGNAIDVVMEDVSQVDEDATADTADDSTGPKSSKRTKGVKGESRVVPVPKHRYTPLKDNWVNIFTPIVKNLGLQVRFNLKKRQVEIRNPVDREDTTDLQKATDFVRAFILGFEVNDAIALIRLDHLFLETFEVADVKHSLKGDHVSRAIGRIAGKDGRTKLVIENTTKTRIVVANTKIHILGAYQNLKLARNAVCSLILGSNPSKVYGSLRNMASRGAERL | not soluble
9 | MAHHHHHHMAEDTITFLRTVGKLKETDRTGWVEHGIPNPESVSDHMYRVAVMCMMCPDEKLDRNKLIRMALCHDAGESIVGDISPKMGVSKEDKYNQEKAAVLHLTGLLEKESPLSRELHELWEEYEAQHTPEAQFLKDIDLLEMVAQAHAYELAHPKKDLSSFFVSGEKIKHPWARNIYETLLRTRSSEK | soluble
10 | MTTPAPVPRITVLLPVYNGEQYLREALDSLLTQTYRNFSLLAVDDGSTDSSLEILRSIKDPRLSVKVNPRNRGLINTLNESLDLIQSEYVARMDADDIATPYRLEEQLAFMDAHPDVGLCGGYYERFTDTESIVVRPPTTHEDISYALIFDNVMAHNTVMFRRSVLERYRLRYDPAFAYAEDYELWVRFARYSRLANLPRVLVRYRFHPANTSSRFRHEQQIAAAKIRHIHRTNLGLEPRPGDAALHRQLFDMRFEGDLPELTAAGIWLSKLYRVGVRRCRQNPVSTFLEFNKLWYSACGRLADHGLKVFAQFLRQPFGFLGNPAYTLKLAYRCWRRIRIALEHHHHHH | not soluble
11 | MTTVIVANDLVGFGKVALTSSLLPIMSACQTEVLPLPTVLLSSHTGEFDNIYVRYLTVDMQGFCGQWKRLDFRVDGLVGGYFKSEEELGLVSQCLTKKRFLFLLDPIMGDNGRLYQGFDRDYVEAMKDFCQQADVIIPNLTEAALLTGSPYLEEGSYDMTTIENLLRNLSRLGPRKVILTGISFETEKIGLAYFDKETNQVIYRMRKRYQSHFYGSGDLLTAILSAGYFHNLDFLKVCDLALDFLNKVLLFTLSSGRPLKYGLCYEPLYRLFI | soluble
12 | MTAVRDPFFPADQSIRASHNPIEVRELGMMDYQRAWDLQAELNKQRQHDEINDVILVLEHPSIYTAGKRTQPSDRPQNGLPVIDVDRGGRITWHGPGQLVMYPIIKLAEPIDVVDYVRRVEEALIHVIRTHGIPNAGRIDGRSGVWVPGKTPEEHRKVAALGIRIAGGVTMHGLALNCDNTVEFYDYIVPCGISDAGVTTMSQEVGNDVTTQSMTAPLLAALDDAFAGRLVVADHSFASAPDPTKIPRRP | not soluble
13 | TNLISVNSRSYRLSSAPTIVICVDGCEQEYINQAIQAGQAPFLAELTGFGTVLTGDCVVPSFTNPNNLSIVTGAPPSVHGICGNFFFDQETQEEVLMNDAKYLRAPTILAEMAKAGQLVAVVTAKDKLRNLLGHQLKGICFSAEKADQVNLEEHGVENILARVGMPVPSVYSADLSEFVFAAGLSLLTNERPDFMYLSTTDYVQHKHAPGTPEANAFYAMMDSYFKRYHEQGAIVAITADHGMNAKTDAIGRPNILFLQDLLDAQYGAQRTRVLLPITDPYVVHHGALGSYATVYLRDAVPQRDAIDFLAGIAGVEAVLTRSQACQRFELPEDRIGDLVVLGERLTVLGSAADKHDLSGLTVPLRSHGGVSEQKVPLIFNRKLVGLDSPGRLRNFDIIDLALNHLA | soluble
14 | MSLVIITDATEADLDQIFQIETESFEDPYPYSLLRAYLFLANKLYLVAKQREKVVGYIIGIIQYGYRGHIVSIAVEPIYRKQGIGAKLLNEIEERFKLNGARYSYLEVNTNNLSAISFYRANGYLIMYVRKNYYGRDKHAFVMVKNLYEGHHHHHH | soluble
15 | MKKVQPLNPEQVKRFLETAKQDPLYPAFLLALGTGLRRGEILGLRWQDLDLQKGILQVRQSLIRTREGLKFEEPKTEKSRRQIPLPPSVVAALKRHKAWVNQNKLILGPDYEDHDLVFPVENGRPRDPKGFAEYFNRLLDKAGLPHIRLHDLRHTHATLLLLEGVHPKVVQERLGHSTVSITLDIYSHILPGLQEKAAERIDGLLQPKENPSPKEGTIKLEHHHHHH | soluble
16 | MASGENLAPRDAKVISVILRSLGIEECEPKVIIQLLEFAYRYTTDVLEDALLFAKHTGRTHITTSDVKLALQTKVGRHFVPPPPRQYLSEISTMVNSKPLTIPDGENLIRVPPSSSALLNLDYEVLRKDSDKKRRIY | not soluble
17 | MVVFDLSWTLVQADSFELLCQAAAVDADAVAEVRRCHSLGSDDDLRACAALLRGRSSTGLAERLHALIEYTDGAASVCRVLKKLGYRTTVLSPGRSFLRELVKADLGIDFVAANRHEMDSNEHFTGAILELLVNGERKAELLTMLAMREQLSPQQIIAVGDGPVSAKMLDSAGPSIAFGAPAARDGTNIGGKIQSKSLTCIWFLMGIHERDLRSFS | soluble
18 | MRKQNRPNQTARKQMQNLTVELFARDKNARRQLLNVALTATPPPSVEPSSPTRPSEPIPPPLPEPIPELVQILLAAEPNKPSVPKRSNRKKLTYKQPPRNSTPQVPKVAVTLPVPEPVPEPVPEPVPESTPEPISEPLPVVQEEPASDSLTVQDEQIAQAEPAVEPEEPVVVEHVEVVTASEDPTLESSPPSEPPLLTTPTTPIEDPEPYVTPPPLQRVPYKAQLTHLANIRAVTESMNIAAIPAHHQQHQPQEPMSFAACVRKQPSIESMSVSPSPYAKFDGKTSPFNVGGFSNPGGFGGFSRLDPSKNVNPFANRKRFNYDYDSLPRDSQSSSRFMDRSDLSDGFSPFNSKPNGFTNRVIPRESASSGMLPSWYKGRSFSAASSHYPYSQRSTSTGHFSSFSRPSQSTSMNIPSHGHVEELDGFLAASGQTNPFFKRTDLNMKKERWAKIKAKKRMLRRPVEDQFYEDPDIEEEILHGNGVMLNQIVQQSSAGNYEDADLLRKYRRDVAFVKERVLNAIDGNIDGIRDLRFLLASVQTYGNIDGECMLAEMAMNEFSLFSGIVEKFHAIVGPWMPESESHRRRASRHALETHRIPLQNNFATITKKRLVEEILGRVEPSIACHQGVKVGLYSDACNEKTKIDLNIKNNFKDPGMLCDKNDRRFILVLQSELDLMVDSMKHLANNVGFHYDGFPVTPNCFVIVEAFVEAISDIMNEKIDVETMRWFSLLGQKVDAEDSVSPWETGTDFHCARHSEPKSNFCASVTVGRTCCIVYHVIGSFFRRYHLKKIPTAHQPSSSNSVQ | not soluble
